Columns and labels:
[1] = biological target: ctPrp2 as used for ITC and for in-solution cross-linking (Chaetomium thermophilum); assay: ITC
[2] = biological target: T1, ctPrp2-ctSpp2_211–254 complex (ctPrp2_270–921 with ctSpp2G-patch) (Thermochaetoides thermophila, UniProt G0SEG4); assay: ITC; type: binding
T1 sequence (G0SEG4 270-921): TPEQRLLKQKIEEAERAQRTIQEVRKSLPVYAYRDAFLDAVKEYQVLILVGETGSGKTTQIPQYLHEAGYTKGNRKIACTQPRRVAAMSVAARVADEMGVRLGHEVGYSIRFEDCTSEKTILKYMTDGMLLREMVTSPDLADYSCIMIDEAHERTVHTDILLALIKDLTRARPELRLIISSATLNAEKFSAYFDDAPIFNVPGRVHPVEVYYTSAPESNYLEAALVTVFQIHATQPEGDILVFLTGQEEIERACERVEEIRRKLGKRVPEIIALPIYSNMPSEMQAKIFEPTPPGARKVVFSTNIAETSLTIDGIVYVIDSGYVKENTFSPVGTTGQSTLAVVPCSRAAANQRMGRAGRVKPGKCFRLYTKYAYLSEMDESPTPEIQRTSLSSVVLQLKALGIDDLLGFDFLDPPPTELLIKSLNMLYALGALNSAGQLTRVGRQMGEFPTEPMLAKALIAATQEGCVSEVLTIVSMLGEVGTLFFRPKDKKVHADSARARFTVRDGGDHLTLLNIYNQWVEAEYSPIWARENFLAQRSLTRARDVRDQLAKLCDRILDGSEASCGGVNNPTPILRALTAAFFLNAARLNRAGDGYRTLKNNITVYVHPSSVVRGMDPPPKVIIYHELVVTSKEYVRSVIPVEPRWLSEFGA
T1 sequence (G0SFN3 211-254 partner): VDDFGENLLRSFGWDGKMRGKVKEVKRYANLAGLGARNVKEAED

ctSpp2_(211–254), G-patch domain of Spp2 from Chaetomium thermophilum (domain or fragment)
Kd [1]: 720 nM

Nc1ncnc2c1ncn2[C@@H]1O[C@H](COP(=O)(O)OP(=O)(O)O)[C@@H](O)[C@H]1O [ADP]
Kd [2]: ~172 nM

— paper PMC7022188 (Proceedings of the National Academy of Sciences of the …, 2020)
